Source: paper PMC12781075, “Crosstalk between arachidonic acid metabolism and glycolysis drives integrated metabolic-inflammatory reprogramming in macrophages” (International Journal of Biological Sciences, 2026)
“And” between values parts separate entries of the source, which are not always exact repeats. Equal values may be shown once.

Target: pyruvate kinase M2 (mouse (endogenous in RAW264.7)) (UniProt P52480)
Assay: cross-linking; RAW264.7 macrophages treated with 15KPF, lysed, lysate incubated with 2.5 mM disuccinimidyl suberate for 30 min; 10% SDS-PAGE and PKM2 immunoblot

Sequence of pyruvate kinase M2, P52480 1-531 (enzyme; other documents disagree on this pair) (P52480 whole entry): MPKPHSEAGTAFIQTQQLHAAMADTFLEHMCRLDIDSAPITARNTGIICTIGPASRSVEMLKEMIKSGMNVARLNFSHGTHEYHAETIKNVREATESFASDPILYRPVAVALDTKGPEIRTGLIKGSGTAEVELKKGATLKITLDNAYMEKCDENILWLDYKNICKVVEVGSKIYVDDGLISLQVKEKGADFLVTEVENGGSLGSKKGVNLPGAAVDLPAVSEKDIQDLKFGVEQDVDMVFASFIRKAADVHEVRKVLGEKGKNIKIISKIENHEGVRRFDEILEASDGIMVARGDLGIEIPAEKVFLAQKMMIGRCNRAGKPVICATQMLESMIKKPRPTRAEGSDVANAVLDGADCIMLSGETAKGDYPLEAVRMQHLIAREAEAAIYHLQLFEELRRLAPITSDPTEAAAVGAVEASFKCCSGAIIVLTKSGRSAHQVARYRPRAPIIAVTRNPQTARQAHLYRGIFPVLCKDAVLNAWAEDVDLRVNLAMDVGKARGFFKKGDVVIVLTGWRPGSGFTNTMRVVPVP

stoichiometry N: 4 and 2
Substance: pyruvate kinase M2, P52480 1-531 (enzyme; other documents disagree on this pair)
